# Measurements reported in the supplement of paper PMC7125110.
# ± gives the standard error. Fewer inactive variants are shown than the library holds.
# B1: glmS ribozyme (parent)
# chain: AUAAAAGCGCCAGAACUACAGAAAUGUAGUUGACGAGGAGGAGGUUUAUCGAAUUUUCGGCGGAUGCCUCCAAA
# Columns and labels:
# Details in all cases: with glucosamine-6-phosphate
# [1] = variants of: B1; experiment: self-cleavage kobs at 640 uM GlcN6P; higher = faster cleavage; RNA array
# Summary of the method: (§1)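 Sequenced MiSeq chips were the platform: E. coli RNA polymerase transcribed barcoded ribozyme variants on them in situ, and a hybridised Cy3 probe tracked these at 37 °C. After glucosamine-6-phosphate (40 μM to 10 mM) in HEPES/KCl/Mg(OAc)2 buffer was flowed in, tiles were imaged over ~14 h. Signals normalised to baseline and to non-cleaving reference variants were reduced to per-tile medians and fit to one- or two-exponential decays to obtain kobs. kcat and KM were derived through weighted Michaelis–Menten fits across concentrations.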
# [2] = variants of: B1; experiment: self-cleavage kobs at 2500 uM GlcN6P; higher = faster cleavage; RNA array
# Summary of the method: as §1
# [3] = variants of: B1; experiment: self-cleavage kobs at 10000 uM GlcN6P; higher = faster cleavage; RNA array
# Summary of the method: as §1
Variant,self-cleavage kobs at 640 uM GlcN6P [1],self-cleavage kobs at 2500 uM GlcN6P [2],self-cleavage kobs at 10000 uM GlcN6P [3]
G9C C16G,< 1e-05 s⁻¹,< 1e-05 s⁻¹,–
C11A G37A C50U G59A C67U U69G,6.37e-05 ± 2.7e-05 s⁻¹,–,–
C10A G38A G40U C50G G51U,< 1e-05 s⁻¹,< 1e-05 s⁻¹,–
C10U U30A A33U,< 1e-05 s⁻¹,–,–
C8G G32A A39G U54A,< 1e-05 s⁻¹,< 1e-05 s⁻¹,–
C10U A53U C67A C68G,4.13e-05 ± 1.9e-05 s⁻¹,–,–
G9U C34U A39G,< 1e-05 s⁻¹,–,–
C8G A15C C16U,< 1e-05 s⁻¹,–,–
C10A A12U C67G,8.71e-05 ± 3.5e-05 s⁻¹,–,–
C8A G32C,< 1e-05 s⁻¹,< 1e-05 s⁻¹,< 1e-05 s⁻¹
C11U A33C U55G C58U,< 1e-05 s⁻¹,–,–
C8U A33U G60U,< 1e-05 s⁻¹,< 1e-05 s⁻¹,–
C8A A14G G29A A36U,< 1e-05 s⁻¹,< 1e-05 s⁻¹,–
G7U U55G U57C,< 1e-05 s⁻¹,< 1e-05 s⁻¹,< 1e-05 s⁻¹
C8G U54C G60A,< 1e-05 s⁻¹,< 1e-05 s⁻¹,–
C10U A39U A52U C58G C71U,< 1e-05 s⁻¹,< 1e-05 s⁻¹,–
C11U A14C A39G,0.000103 ± 3.3e-05 s⁻¹,0.000472 ± 0.00019 s⁻¹,–
C11U G38C C50U A52C,< 1e-05 s⁻¹,–,–
G7U C8U G40U G62C,< 1e-05 s⁻¹,–,–
C10G C11U G41A C70U,< 1e-05 s⁻¹,–,–
C8A A48G A53U,< 1e-05 s⁻¹,< 1e-05 s⁻¹,–
C8G C50G A52U,< 1e-05 s⁻¹,–,–
C8A U31A C34U G60C,< 1e-05 s⁻¹,–,–

Variant,self-cleavage kobs at 640 uM GlcN6P [1],self-cleavage kobs at 2500 uM GlcN6P [2],self-cleavage kobs at 10000 uM GlcN6P [3]
C10G A33C G37A G59U,< 1e-05 s⁻¹,< 1e-05 s⁻¹,–
C10A A42G U47C C50G C70U,< 1e-05 s⁻¹,–,–
G7U G66A C67U,< 1e-05 s⁻¹,< 1e-05 s⁻¹,–
G9C A39G G40U,< 1e-05 s⁻¹,< 1e-05 s⁻¹,< 1e-05 s⁻¹
C10G U54A C58G G62C C67G,6.44e-05 ± 2.7e-05 s⁻¹,6.02e-05 ± 2.4e-05 s⁻¹,–
G9A U55C,< 1e-05 s⁻¹,< 1e-05 s⁻¹,–
C11A G44A C68A,< 1e-05 s⁻¹,< 1e-05 s⁻¹,–
G9A C10U C68A,< 1e-05 s⁻¹,–,–
C11U A53G G66A,0.000178 ± 4e-05 s⁻¹,–,–
C8U G13A G35A G38A G63A C68U,0.001 ± 0.00031 s⁻¹,–,–
G9C A39U G40U,< 1e-05 s⁻¹,< 1e-05 s⁻¹,–
G7U A33C U47A,< 1e-05 s⁻¹,< 1e-05 s⁻¹,–
C8A U31C G32A,< 1e-05 s⁻¹,–,–
C8U C11A,< 1e-05 s⁻¹,–,< 1e-05 s⁻¹
G7U U30A G63A,< 1e-05 s⁻¹,–,–
C11G A14G G41A G43C,< 1e-05 s⁻¹,< 1e-05 s⁻¹,–
C11A G13U U57G C71U,4.71e-05 ± 2.2e-05 s⁻¹,–,–
G7U G13U A42G,< 1e-05 s⁻¹,–,–
G9A G35A A48C C50G,< 1e-05 s⁻¹,< 1e-05 s⁻¹,–
C11U A15U U57G C58U C67U,0.00016 ± 4e-05 s⁻¹,0.000131 ± 4.9e-05 s⁻¹,–
G9U A36G A39U,< 1e-05 s⁻¹,< 1e-05 s⁻¹,–
C11U G41C C67U,< 1e-05 s⁻¹,–,–
C10U A36U C70A,0.00107 ± 0.00039 s⁻¹,–,–

Variant,self-cleavage kobs at 640 uM GlcN6P [1],self-cleavage kobs at 2500 uM GlcN6P [2],self-cleavage kobs at 10000 uM GlcN6P [3]
C11G C34U U69G,0.000508 ± 0.00017 s⁻¹,–,–
C8G G32U G38U G44A,< 1e-05 s⁻¹,–,–
C10A A14C A64U,< 1e-05 s⁻¹,< 1e-05 s⁻¹,–
C11A U30G G32U G44A G66A,< 1e-05 s⁻¹,< 1e-05 s⁻¹,–
C10G G44U C70U,< 1e-05 s⁻¹,–,–
C11U A15G G60U,< 1e-05 s⁻¹,–,–
C11U A12G C34A,< 1e-05 s⁻¹,–,–
C11U A14G A52G,8.93e-05 ± 1.6e-05 s⁻¹,0.00029 ± 8e-05 s⁻¹,–
G9C G40C U49G,< 1e-05 s⁻¹,–,< 1e-05 s⁻¹
C8A G37U A52G C70G,0.000115 ± 5.1e-05 s⁻¹,–,–
C8G A33U G41U,< 1e-05 s⁻¹,–,–
C10G C16A A53U G66U U69A,5.56e-05 ± 2.7e-05 s⁻¹,4.65e-05 ± 2e-05 s⁻¹,–
C11A U31G G35C,< 1e-05 s⁻¹,< 1e-05 s⁻¹,–
C10U A33C U46C G51C G60C,< 1e-05 s⁻¹,< 1e-05 s⁻¹,–
C8A C10A A42G G60U,< 1e-05 s⁻¹,< 1e-05 s⁻¹,–
C8U A15G C16U U55C,< 1e-05 s⁻¹,–,–
G9C A48G C67G C68A,9.72e-05 ± 4.1e-05 s⁻¹,–,0.000631 ± 0.00016 s⁻¹
C8U A33U U46G A53G U55A,< 1e-05 s⁻¹,< 1e-05 s⁻¹,–
C11A A42C U46C C71U,< 1e-05 s⁻¹,–,–
G9C A33G G35A G63U,< 1e-05 s⁻¹,–,–
G7U A14U A52C C68A,0.00249 ± 0.001 s⁻¹,–,–
